Source: patent US4016042A, “Substrate for the quantitative determination of enzymes” (Pentapharm A.G., priority 1974, dated 1977)

Substrate: N=C(N)NCCC[C@H](NC(=O)[C@H](Cc1ccccc1)NC(=O)[C@@H]1CCCN1C(=O)c1ccccc1)C(=O)Nc1ccc([N+](=O)[O-])cc1
Test: Km and vmax determination with substrate (Lineweaver-Burk), plasmin
Assay type: biochemical
Details: other: plasmin; substrate concentration varied, enzyme constant; measured at 405 nm
Description: As is evident from equation (2) constants Km and k3 determine the activity of the enzyme substrate for a given enzyme. For determining these constants the following procedure is followed:
The enzyme and the substrate are mixed in a buffer solution, and the reaction is followed spectrophotometrically for 2 to 30 minutes. The concentration of substrate [S] is varied, whereas the enzyme concentration [E] is kept constant. If the extinction (OD) (= optical density) is plotted in a co-ordinate system as a function of time, a curve is obtained the tangent of which (difference in extinction per minute, Δ OD/minute, from which the quantity in μmoles of pNA/min (v) can be calculated) at time zero corresponds to the ideal course of the hydrolysis. By means of this tangent the initial rate of the hydrolysis can be determined.
If 1/v is plotted against 1/[S], a Lineweaver-Burk diagram (cf. "Kurzes Lehrbuch der Biochemie" by P. KARSON, Georg Thieme-Verlag, Stuttgart, 1967, p. 70) is obtained from which vmax and Km can be determined graphically.
Km and k3 = vmax /E were determined with N^α-Bz-Pro-Phe-Arg-pNA^. HCl (i.e. the substrate prepared according to Example 1) for plasma kallikrein, trypsin, plasmin and thrombin.

B1: plasmin (Homo sapiens) (protein)
chain: VVGGCVAHPHSWPWQVSLRTRFGMHFCGGTLISPEWVLTAAHCLEKSPRPSSYKVILGAHQEVNLEPHVQEIEVSRLFLEPTRKDIALLKLSSPAVITDKVIPACLPSPNYVVADRTECFITGWGETQGTFGAGLLKEAQLPVIENKVCNRYEFLNGRVQSTELCAGHLAGGTDSCQGDSGGPLVCFEKDKYILQGVTSWGLGCARPNKPGVYVRVSRFVTWIEGVMRNN
B1 showed a Km of 140 µM.
